Measurements taken from the supplement of paper PMC11780869.

The sequences below were run on Bacillus subtilis (assay: cleaved RNA product abundance (RNA/gDNA barcode ratio) relative to median wild-type variant (ratio to wild type); higher = more accumulation of the downstream cleavage product). Details: experiment (reporter, strain, medium): exp 8a: truncated aprE reporter, strain BJT201 with 2% xylose (RNase J1 expressed); cleavage site: glnRA (positions -5 to +31 mutated).
How it was run: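 Cleaved product abundance was measured with barcoded reporter mRNAs (truncated aprE or tetM) carrying mutagenized RNase Y cleavage-site windows in the B. subtilis chromosome. Cultures in LB at 37°C grew from OD600 0.0003 to 0.3. Gel-selected cleaved RNA was reverse transcribed and barcode-sequenced with genomic DNA barcodes, and the RNA:gDNA barcode ratio per construct was scaled to the median construct bearing the unmutated site.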

| Sequence | cleaved RNA product abundance |
| --- | --- |
| CGACATGTCCCGCTTCTTTCATTAATCCGTTAGTAACTGTTTTGCAATATACATTTACCTTTTAAGAGGAGGAAT | 0.316 |
| CGACATGTCCCGCTTCTTTCATTAATCCGTTAGTAACTGTTTTGCGATATACATTTACCTTTTAAGAGGAGGAAT | 0.29 |
| CGACATGTCCCGCTTCTTTCATTAATCCGTTAGTAACTGTTTTGCTAAATACATTTACCTTTTAAGAGGAGGAAT | 0.496 |
| CGACATGTCCCGCTTCTTTCATTAATCCGTTAGTAACTGTTTTGCTACATACATTTACCTTTTAAGAGGAGGAAT | 0.318 |
| CGACATGTCCCGCTTCTTTCATTAATCCGTTAGTAACTGTTTTGCTATAAACATTTACCTTTTAAGAGGAGGAAT | 0.389 |
| CGACATGTCCCGCTTCTTTCATTAATCCGTTAGTAACTGTTTTGCTATAGACATTTACCTTTTAAGAGGAGGAAT | 0.536 |
| CGACATGTCCCGCTTCTTTCATTAATCCGTTAGTAACTGTTTTGCTATATACACTTACCTTTTAAGAGGAGGAAT | 0.527 |
| CGACATGTCCCGCTTCTTTCATTAATCCGTTAGTAACTGTTTTGCTATATACATATACCTTTTAAGAGGAGGAAT | 0.305 |
| CGACATGTCCCGCTTCTTTCATTAATCCGTTAGTAACTGTTTTGCTATATACATTTACATTTTAAGAGGAGGAAT | 0.433 |
| CGACATGTCCCGCTTCTTTCATTAATCCGTTAGTAACTGTTTTGCTATATACATTTACCATTTAAGAGGAGGAAT | 0.33 |
| CGACATGTCCCGCTTCTTTCATTAATCCGTTAGTAACTGTTTTGCTATATACATTTACCTTTTAAGAGGAGGAAT | 0.379 |
| CGACATGTCCCGCTTCTTTCATTAATCCGTTAGTAACTGTTTTGCTATATACATTTACGTTTTAAGAGGAGGAAT | 0.581 |
| CGACATGTCCCGCTTCTTTCATTAATCCGTTAGTAACTGTTTTGCTATATACATTTACTTTTTAAGAGGAGGAAT | 0.36 |
| CGACATGTCCCGCTTCTTTCATTAATCCGTTAGTAACTGTTTTTCTATATACATTTACCTTTTAAGAGGAGGAAT | 0.688 |
| CGACATGTCCCGCTTCTTTCATTAATCCGTTAGTAACTTTTTTGCTATATACATTTACCTTTTAAGAGGAGGAAT | 0.636 |
| CGACATGTCCCGCTTCTTTCATTAATCCGTTAGTAAGTGTTTTGCTATATACATTTACCTTTTAAGAGGAGGAAT | 0.265 |
| CGACATGTCCCGCTTCTTTCATTAATCCGTTAGTAATTGTTTTGCTATATACATTTACCTTTTAAGAGGAGGAAT | 0.362 |
| CGACATGTCCCGCTTCTTTCATTAATCCGTTAGTATCTGTTTTACTATATACATTTACCTTTTAAGAGGAGGAAT | 0.917 |
| CGACATGTCCCGCTTCTTTCATTAATCCGTTAGTATCTGTTTTGCTATATACATTTACCTTTTAAGAGGAGGAAT | 0.422 |
| CGACATGTCCCGCTTCTTTCATTAATCCGTTAGTTACTGTTTTGCTATATACATTTACCTTTTAAGAGGAGGAAT | 0.365 |
| CGACATGTCCCGCTTCTTTCATTAATCCGTTATAAACTGTTTTGCTATATACATTTACCTTTTAAGAGGAGGAAT | 0.276 |

| Sequence | cleaved RNA product abundance |
| --- | --- |
| CGACATGTCCCGCTTCTTTCATTAATCCGTTATCAAATGTTATGTTATATACATTTACCTTTTAAGAGGAGGAAT | 0.413 |
| CGACATGTCCCGCTTCTTTCATTAATCCGTTATCAAATGTTTTGCTATATACATTTACCTTTTAAGAGGAGGAAT | 0.283 |
| CGACATGTCCCGCTTCTTTCATTAATCCGTTATCAACAGTTTTGCTATATACATTTACCTTTTAAGAGGAGGAAT | 0.296 |
| CGACATGTCCCGCTTCTTTCATTAATCCGTTATCAACTATTTTGCTATATACATTTACCTTTTAAGAGGAGGAAT | 0.276 |
| CGACATGTCCCGCTTCTTTCATTAATCCGTTATCAACTCTTTTGCTATATACATTTACCTTTTAAGAGGAGGAAT | 0.252 |
| CGACATGTCCCGCTTCTTTCATTAATCCGTTATCAACTGATTTGCTATATACATTTACCTTTTAAGAGGAGGAAT | 0.286 |
| CGACATGTCCCGCTTCTTTCATTAATCCGTTATCAACTGCTTTGCTATATACATTTACCTTTTAAGAGGAGGAAT | 0.114 |
| CGACATGTCCCGCTTCTTTCATTAATCCGTTATCAACTGGTTTGCTATATACATTTACCTTTTAAGAGGAGGAAT | 0.204 |
| CGACATGTCCCGCTTCTTTCATTAATCCGTTATCAACTGTATTGCTATATACATTTACCTTTTAAGAGGAGGAAT | 0.306 |
| CGACATGTCCCGCTTCTTTCATTAATCCGTTATCAACTGTGTTGCTATATACATTTACCTTTTAAGAGGAGGAAT | 0.27 |
| CGACATGTCCCGCTTCTTTCATTAATCCGTTATCAACTGTTATGCTATATACATTTACCTTTTAAGAGGAGGAAT | 0.24 |
| CGACATGTCCCGCTTCTTTCATTAATCCGTTATCAACTGTTCTGCTATATACATTTACCTTTTAAGAGGAGGAAT | 0.213 |
| CGACATGTCCCGCTTCTTTCATTAATCCGTTATCAACTGTTTAGCTATATACATTTACCTTTTAAGAGGAGGAAT | 0.243 |
| CGACATGTCCCGCTTCTTTCATTAATCCGTTATCAACTGTTTCGCTATATACATTTACCTTTTAAGAGGAGGAAT | 0.192 |
| CGACATGTCCCGCTTCTTTCATTAATCCGTTATCAACTGTTTGGCTATATACATTTACCTTTTAAGAGGAGGAAT | 0.231 |
| CGACATGTCCCGCTTCTTTCATTAATCCGTTATCAACTGTTTTAATATATACATTTACCTTTTAAGAGGAGGAAT | 0.415 |
| CGACATGTCCCGCTTCTTTCATTAATCCGTTATCAACTGTTTTACTATATACATTTACCTTTTAAGAGGAGGAAT | 0.335 |
| CGACATGTCCCGCTTCTTTCATTAATCCGTTATCAACTGTTTTCCTATATACATTTACCTTTTAAGAGGAGGAAT | 0.292 |
| CGACATGTCCCGCTTCTTTCATTAATCCGTTATCAACTGTTTTGATATATACATTTACCTTTTAAGAGGAGGAAT | 0.26 |
| CGACATGTCCCGCTTCTTTCATTAATCCGTTATCAACTGTTTTGCAATATACATTTACCTTTTAAGAGGAGGAAT | 0.266 |
| CGACATGTCCCGCTTCTTTCATTAATCCGTTATCAACTGTTTTGCCATATACATTTACCTTTTAAGAGGAGGAAT | 0.145 |

| Sequence | cleaved RNA product abundance |
| --- | --- |
| CGACATGTCCCGCTTCTTTCATTAATCCGTTATCAACTGTTTTGCGATATACATTTACCTTTTAAGAGGAGGAAT | 0.168 |
| CGACATGTCCCGCTTCTTTCATTAATCCGTTATCAACTGTTTTGCTAAATACATTTACCTTTTAAGAGGAGGAAT | 0.237 |
| CGACATGTCCCGCTTCTTTCATTAATCCGTTATCAACTGTTTTGCTATAAACATTTACCTTTTAAGAGGAGGAAT | 0.182 |
| CGACATGTCCCGCTTCTTTCATTAATCCGTTATCAACTGTTTTGCTATACACATTTACCTTTTAAGAGGAGGAAT | 0.27 |
| CGACATGTCCCGCTTCTTTCATTAATCCGTTATCAACTGTTTTGCTATAGACATTTACCTTTTAAGAGGAGGAAT | 0.206 |
| CGACATGTCCCGCTTCTTTCATTAATCCGTTATCAACTGTTTTGCTATATAAATTTACCTTTTAAGAGGAGGAAT | 0.243 |
| CGACATGTCCCGCTTCTTTCATTAATCCGTTATCAACTGTTTTGCTATATACAATTACCTTTTAAGAGGAGGAAT | 0.276 |
| CGACATGTCCCGCTTCTTTCATTAATCCGTTATCAACTGTTTTGCTATATACAGTTACCTTTTAAGAGGAGGAAT | 0.286 |
| CGACATGTCCCGCTTCTTTCATTAATCCGTTATCAACTGTTTTGCTATATACATATACCTTTTAAGAGGAGGAAT | 0.348 |
| CGACATGTCCCGCTTCTTTCATTAATCCGTTATCAACTGTTTTGCTATATACATTAACCTTTTAAGAGGAGGAAT | 0.283 |
| CGACATGTCCCGCTTCTTTCATTAATCCGTTATCAACTGTTTTGCTATATACATTCACCTTTTAAGAGGAGGAAT | 0.214 |
| CGACATGTCCCGCTTCTTTCATTAATCCGTTATCAACTGTTTTGCTATATACATTGACCTTTTAAGAGGAGGAAT | 0.253 |
| CGACATGTCCCGCTTCTTTCATTAATCCGTTATCAACTGTTTTGCTATATACATTTAACTTTTAAGAGGAGGAAT | 0.291 |
| CGACATGTCCCGCTTCTTTCATTAATCCGTTATCAACTGTTTTGCTATATACATTTACATTTTAAGAGGAGGAAT | 0.366 |
| CGACATGTCCCGCTTCTTTCATTAATCCGTTATCAACTGTTTTGCTATATACATTTACCATTTAAGAGGAGGAAT | 0.269 |
| CGACATGTCCCGCTTCTTTCATTAATCCGTTATCAACTGTTTTGCTATATACATTTACCTTTTAAGAGGAGGAAT | 0.298 |
| CGACATGTCCCGCTTCTTTCATTAATCCGTTATCAACTGTTTTGCTATATACATTTACGTTTTAAGAGGAGGAAT | 0.376 |
| CGACATGTCCCGCTTCTTTCATTAATCCGTTATCAACTGTTTTGCTATATACATTTATCTTTTAAGAGGAGGAAT | 0.347 |
| CGACATGTCCCGCTTCTTTCATTAATCCGTTATCAACTGTTTTGCTATATACATTTCCCTTTTAAGAGGAGGAAT | 0.124 |
